Experimental data published in patent EP3837551B1 (Medizinische Hochschule Hannover, dated 2024).

T1: Serum-derived FHR1 (FHR1 from normal human serum, NHS) (human, UniProt Q03591 19-330)
T1 construct: mature; The background text says serum FHR1 circulates as homodimers and as heterodimers with FHR2; also called FHR1 from NHS
T1 sequence (looked up): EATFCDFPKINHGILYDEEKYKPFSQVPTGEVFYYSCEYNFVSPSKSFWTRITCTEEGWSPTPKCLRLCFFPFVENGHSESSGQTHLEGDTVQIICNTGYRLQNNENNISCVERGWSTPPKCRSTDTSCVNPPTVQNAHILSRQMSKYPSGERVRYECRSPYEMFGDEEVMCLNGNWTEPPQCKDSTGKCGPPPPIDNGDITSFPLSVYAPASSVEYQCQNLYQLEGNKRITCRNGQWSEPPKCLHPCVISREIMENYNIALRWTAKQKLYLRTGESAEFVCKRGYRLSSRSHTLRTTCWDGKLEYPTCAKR

T2: Recombinant FHR2, expressed in Pichia pastoris (human, UniProt P36980 19-270)
T2 construct: also called CFHR2
T2 sequence (looked up): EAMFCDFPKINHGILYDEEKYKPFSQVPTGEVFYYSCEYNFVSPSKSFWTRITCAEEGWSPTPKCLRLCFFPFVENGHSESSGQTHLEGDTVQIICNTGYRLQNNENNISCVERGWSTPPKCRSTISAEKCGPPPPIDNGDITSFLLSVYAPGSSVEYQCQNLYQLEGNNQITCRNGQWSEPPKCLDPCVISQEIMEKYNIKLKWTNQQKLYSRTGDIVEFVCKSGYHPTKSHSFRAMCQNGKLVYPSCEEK


Legend:
[1] = molecular target: T1, Serum-derived FHR1 (FHR1 from normal …); experiment: ELISA, FHR1 SCR1-2 immobilized, 5% NHS, detection with mAb C18
[2] = molecular target: T2, Recombinant FHR2, expressed in Pichia …; experiment: competition ELISA, FHR2 at 0-15 ug/mL against serum FHR1 on immobilized FHR1 SCR1-2
BSA = molecular target: T3, BSA (UniProt P02769 25-607); experiment: ELISA, BSA coated at 5 ug/mL, FHR1 detected with polyclonal FHR1 antibody
T3 construct: Control protein coated on the plate
T3 sequence (P02769 25-607 limits assumed): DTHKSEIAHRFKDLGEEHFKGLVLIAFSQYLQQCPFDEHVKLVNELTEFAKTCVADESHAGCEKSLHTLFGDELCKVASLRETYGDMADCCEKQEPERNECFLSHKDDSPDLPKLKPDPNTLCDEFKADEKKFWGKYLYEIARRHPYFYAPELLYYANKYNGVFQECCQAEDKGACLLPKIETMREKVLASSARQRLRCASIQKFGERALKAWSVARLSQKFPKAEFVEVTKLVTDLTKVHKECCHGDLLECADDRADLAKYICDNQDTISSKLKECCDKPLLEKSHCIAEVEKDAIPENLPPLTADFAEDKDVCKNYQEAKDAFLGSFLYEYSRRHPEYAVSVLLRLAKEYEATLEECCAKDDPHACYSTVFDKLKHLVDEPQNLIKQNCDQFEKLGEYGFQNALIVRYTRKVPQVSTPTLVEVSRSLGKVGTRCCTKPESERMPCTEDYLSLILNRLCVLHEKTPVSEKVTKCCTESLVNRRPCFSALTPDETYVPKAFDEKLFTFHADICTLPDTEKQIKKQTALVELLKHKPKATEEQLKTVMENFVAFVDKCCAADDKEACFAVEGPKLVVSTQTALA

Row | binding result [1] | binding result [2] | binding result (BSA) | Binder
1 | binds | binds | – | Recombinant FHR1 SCR1-2 (N-terminal fragment of FHR1) (other, human, UniProt Q03591 19-142, looked up, domain: SCR1-2; Expressed in P. pastoris; also called SCR1-2 of FHR1) EATFCDFPKINHGILYDEEKYKPFSQVPTGEVFYYSCEYNFVSPSKSFWTRITCTEEGWSPTPKCLRLCFFPFVENGHSESSGQTHLEGDTVQIICNTGYRLQNNENNISCVERGWSTPPKCRS
2 | – | – | no binding (tested: 30 ug/mL FHR1) | Recombinant factor H related protein 1 (FHR1), expressed in Pichia pastoris (other, human, UniProt Q03591 19-330, looked up, also called CFHR1; Complement Factor H-Related Protein 1) EATFCDFPKINHGILYDEEKYKPFSQVPTGEVFYYSCEYNFVSPSKSFWTRITCTEEGWSPTPKCLRLCFFPFVENGHSESSGQTHLEGDTVQIICNTGYRLQNNENNISCVERGWSTPPKCRSTDTSCVNPPTVQNAHILSRQMSKYPSGERVRYECRSPYEMFGDEEVMCLNGNWTEPPQCKDSTGKCGPPPPIDNGDITSFPLSVYAPASSVEYQCQNLYQLEGNKRITCRNGQWSEPPKCLHPCVISREIMENYNIALRWTAKQKLYLRTGESAEFVCKRGYRLSSRSHTLRTTCWDGKLEYPTCAKR
